# Test results from IntAct's records for PubMed 25910212.
# B1: Lipopolysaccharide-induced tumor necrosis factor-alpha factor (Homo sapiens), Q99732 (parent)
# chain: MSVPGPYQAATGPSSAPSAPPSYEETVAVNSYYPTPPAPMPGPTTGLVTGPDGKGMNPPSYYTQPAPIPNNNPITVQTVYVQHPITFLDRPIQMCCPSCNKMIVSQLSYNAGALTWLSCGSLCLLGCIAGCCFIPFCVDALQDVDHYCPNCRALLGTYKRL
# partner: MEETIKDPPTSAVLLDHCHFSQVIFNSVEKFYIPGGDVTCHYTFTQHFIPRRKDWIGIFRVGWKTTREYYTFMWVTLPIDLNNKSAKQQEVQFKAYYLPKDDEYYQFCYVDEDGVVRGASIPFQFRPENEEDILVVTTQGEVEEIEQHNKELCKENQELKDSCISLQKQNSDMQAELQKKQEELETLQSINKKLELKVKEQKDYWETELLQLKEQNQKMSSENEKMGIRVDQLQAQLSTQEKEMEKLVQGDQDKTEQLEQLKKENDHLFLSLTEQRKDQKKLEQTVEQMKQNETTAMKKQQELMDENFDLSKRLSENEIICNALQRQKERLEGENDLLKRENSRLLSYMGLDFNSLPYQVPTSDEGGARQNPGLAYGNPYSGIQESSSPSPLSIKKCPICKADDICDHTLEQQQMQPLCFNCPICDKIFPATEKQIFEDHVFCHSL
# B2: U4/U6 small nuclear ribonucleoprotein Prp31 (Homo sapiens), Q8WWY3 (parent)
# chain: MSLADELLADLEEAAEEEEGGSYGEEEEEPAIEDVQEETQLDLSGDSVKTIAKLWDSKMFAEIMMKIEEYISKQAKASEVMGPVEAAPEYRVIVDANNLTVEIENELNIIHKFIRDKYSKRFPELESLVPNALDYIRTVKELGNSLDKCKNNENLQQILTNATIMVVSVTASTTQGQQLSEEELERLEEACDMALELNASKHRIYEYVESRMSFIAPNLSIIIGASTAAKIMGVAGGLTNLSKMPACNIMLLGAQRKTLSGFSSTSVLPHTGYIYHSDIVQSLPPDLRRKAARLVAAKCTLAARVDSFHESTEGKVGYELKDEIERKFDKWQEPPPVKQVKPLPAPLDGQRKKRGGRRYRKMKERLGLTEIRKQANRMSFGEIEEDAYQEDLGFSLGHLGKSGSGRVRQTQVNEATKARISKTLQRTLQKQSVVYGGKSTIRDRSSGTASSVAFTPLQGLEIVNPQAAEKKVAEANQKYFSSMAEFLKVKGEKSGLMST
# partner: B1 partner
# B3: Ribose-phosphate pyrophosphokinase 1 (Homo sapiens), P60891 (parent)
# chain: MPNIKIFSGSSHQDLSQKIADRLGLELGKVVTKKFSNQETCVEIGESVRGEDVYIVQSGCGEINDNLMELLIMINACKIASASRVTAVIPCFPYARQDKKDKSRAPISAKLVANMLSVAGADHIITMDLHASQIQGFFDIPVDNLYAEPAVLKWIRENISEWRNCTIVSPDAGGAKRVTSIADRLNVDFALIHKERKKANEVDRMVLVGDVKDRVAILVDDMADTCGTICHAADKLLSAGATRVYAILTHGIFSGPAISRINNACFEAVVVTNTIPQEDKMKHCSKIQVIDISMILAEAIRRTHNGESVSYLFSHVPL
# partner: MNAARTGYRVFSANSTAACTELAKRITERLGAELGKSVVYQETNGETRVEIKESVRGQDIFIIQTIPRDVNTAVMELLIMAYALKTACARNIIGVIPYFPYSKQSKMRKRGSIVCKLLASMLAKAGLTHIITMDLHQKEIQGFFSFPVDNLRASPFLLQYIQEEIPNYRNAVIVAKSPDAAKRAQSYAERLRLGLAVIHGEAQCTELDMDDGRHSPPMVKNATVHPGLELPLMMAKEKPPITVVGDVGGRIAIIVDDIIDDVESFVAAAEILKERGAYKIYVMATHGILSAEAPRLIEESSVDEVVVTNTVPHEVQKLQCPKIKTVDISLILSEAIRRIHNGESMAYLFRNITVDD
# Variants of: B1
# Conditions: with caco2_human CALCOCO2, Q13137
row,Variant,effect of a mutation on the interaction
1,I92V,with no effect
2,A111G,disrupting interaction strength
3,G112S,disrupting interaction strength

# Variants of: B2
# Conditions: with caco2_human CALCOCO2, Q13137
row,Variant,effect of a mutation on the interaction
1,MSLADELLADLEEAAEEEEGGSYGEEEEEPAIEDVQEETQLDLSGDSVKTIAKLWDSKMFAEIMMKIEEYISKQAKASEVMGPVEAAPEYRVIVDANNLTVEIENEVNIIHKFIRDKYSKRFPELESLVPNALDYIRTVKELGNSLDKCKNNENLQQILTNATIMVVSVTASTTQGQQLSEEELERLEEACDMALELNASKHRIYEYVESRMSFIAPNLSIIIGASTAAKIMGVAGGLTNLSKMPACNIMLLGAQRKTLSGFSSTSVLPHTGYIYHSDIVQSLPPDLRRKAARLVAAKCTLAARVDSFHESTEGKVGYELKDEIERKFDKWQEPPPVKQVKPLPAPLDGQRKKRGGRRYRKMKERLGLTEIRKQANRMSFGEIEEDAYQEDLGFSLGHLGKSGSGRVRQTQVNEATKARISKTLQRTLQKQSVVYGGKSTIRDRSSGTASSVAFTPLQGLEIVNPQAAEKKVAEANQKYFSSMAEFLKVKGEKSGLMST [L107V],with no effect

# Variants of: B3
# Conditions: with kpra_human PRPSAP1, Q14558
row,Variant,effect of a mutation on the interaction
1,MPNIKIFSGSSHQDLSQKIADRLGLELGKVVTKKFSNQETCVEIGESVRGEHVYIVQSGCGEINDNLMELLIMINACKIASASRVTAVIPCFPYARQDKKDKSRAPISAKLVANMLSVAGADHIITMDLHASQIQGFFDIPVDNLYAEPAVLKWIRENISEWRNCTIVSPDAGGAKRVTSIADRLNVDFALIHKERKKANEVDRMVLVGDVKDRVAILVDDMADTCGTICHAADKLLSAGATRVYAILTHGIFSGPAISRINNACFEAVVVTNTIPQEDKMKHCSKIQVIDISMILAEAIRRTHNGESVSYLFSHVPL [D52H],with no effect
2,MPNIKIFSGSSHQDLSQKIADRLGLELGKVVTKKFSNQETCVEIGESVRGEDVYIVQSGCGEINDNLMELLIMINACKIASASRVTAVIPCFPYARQDKKDKSRAPISAKLVASMLSVAGADHIITMDLHASQIQGFFDIPVDNLYAEPAVLKWIRENISEWRNCTIVSPDAGGAKRVTSIADRLNVDFALIHKERKKANEVDRMVLVGDVKDRVAILVDDMADTCGTICHAADKLLSAGATRVYAILTHGIFSGPAISRINNACFEAVVVTNTIPQEDKMKHCSKIQVIDISMILAEAIRRTHNGESVSYLFSHVPL [N114S],with no effect
